# From PMC3814370, “Functional assignment of KEOPS/EKC complex subunits in the biosynthesis of the universal t^6A tRNA modification” (Nucleic Acids Research, 2013)
# Legend:
# [1] = target: Pcc1–Kae1 binary complex from Pyrococcus abyssi (Pyrococcus abyssi) (UniProt Q9V1Z9)
# [2] = tested on: Kae1-Bud32 (Pyrococcus abyssi); assay: EMSA; conditions: apparent Kd; retarded bands from 50 nM; EMSA: 10 nM 32P-tRNA, 20 µl binding buffer BB (composition not in material), 15 min at 4 C (Figure 7 legend: room temperature), 10% native gel in 1X TGE at 4 C
# Chain of Pcc1–Kae1 binary complex from Pyrococcus abyssi (Pyrococcus abyssi) (Q9V1Z9 whole entry, chain 1 of 2): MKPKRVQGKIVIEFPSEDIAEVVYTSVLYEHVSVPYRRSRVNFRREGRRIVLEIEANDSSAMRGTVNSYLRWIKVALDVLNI
# Chain of Pcc1–Kae1 binary complex from Pyrococcus abyssi (Pyrococcus abyssi) (Q9UXT7 whole entry, chain 2 of 2, further chain): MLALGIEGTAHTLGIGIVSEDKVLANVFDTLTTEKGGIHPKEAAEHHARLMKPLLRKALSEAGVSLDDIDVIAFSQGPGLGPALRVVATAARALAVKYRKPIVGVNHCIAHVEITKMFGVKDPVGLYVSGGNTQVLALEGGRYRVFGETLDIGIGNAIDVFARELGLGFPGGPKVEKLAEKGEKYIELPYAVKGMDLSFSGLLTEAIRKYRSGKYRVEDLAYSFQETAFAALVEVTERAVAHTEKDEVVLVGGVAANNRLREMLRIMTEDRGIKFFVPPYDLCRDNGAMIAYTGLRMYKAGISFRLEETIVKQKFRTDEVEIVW
substance,measurement,setting,value
Kae1–Bud32–Cgi121 ternary complex from Pyrococcus abyssi (from UniProt Q9UXT7 1-324; Q9UYB9 1-220; Q9UZ62 1-171),"t^6A synthesis (14C-L-threonine incorporated into tRNA) after adding Pcc1–Kae1 to the ternary complex, relative to PaKEOPS",[1],36%
Kae1–Bud32 binary complex from Pyrococcus abyssi (from UniProt Q9UXT7 1-324; Q9UYB9 1-220),"t^6A synthesis (14C-L-threonine incorporated into tRNA) by a mix of the two binary complexes, relative to PaKEOPS",[1],30%
substrate tRNA (probably Ec_tRNALys),Kd,[2],2000 nM
